Data reported in the RNAGym collection of RNA variant scans (doi:10.1073/pnas.2313332121).
Fewer inactive variants are shown than the library holds.

B1: TPR 5TU (parent)
chain: GGAUCUUCUCGAUCUAACAAAAAAGACAAAUCUGCCACAAAGCUUGAGAGCAUCUUCGGAUGCAGAGGCGGCAGCCUUCGGUGGCGCGAUAGCGCCAACGUUCUCAACUAUGACACGCAAAACGCGUGCUCCGUUGAAUGGAGUUUAUCAUG

Variants of: B1
Assay: polymerase ribozyme fitness, log enrichment relative to wild type (log ratio); higher = more active; in vitro selection for triplet polymerase activity
How it was run: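 For each subunit of a heterodimeric triplet polymerase ribozyme, a mutant library was built by PCR and transcribed, then taken through a single in vitro selection round in triplicate. Selection involved annealing to a biotinylated primer, the partner subunit and triplets, incubation frozen at −7 °C, gel excision of extended constructs, capture on streptavidin beads and RT-PCR. Genotypes were retained after Illumina sequencing of inputs and outputs only with ≥10 input reads and ≥1 read in each output. Fitness is defined as the logarithm of a genotype's enrichment relative to wild-type enrichment, using inverse-variance-weighted averages across replicates, with the logarithm taken to base 2.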

Variant	polymerase ribozyme fitness (log ratio)
GGAUCUUCUCGAUCUAACAAAAAAGACAAAUCUGCCACACAGCUUGAGAGCAUCUUCGGAUGCAGAGGCGGCAGCCUUCGGUGGCGCGAUAGUGCCAACGUUCUCAACUAUGACACGCAAAACGCGUGCUCCGUUGAAUGGAGUUUAUCAUG [A40C C93U]	0.422
GGAUCUUCUCGAUCUAACAAAAAAGACAAAUCUGCCACACAGCUUGAGAGCAUCUUCGGAUGCAGAGGCGGCAGCCUUCGGUGGCGUGAUAGCGCCAACGUUCUCAACUAUGACACCCAAAACGCGUGCUCCGUUGAAUGGAGUUUAUCAUG [A40C C87U G117C]	-0.313
GGAUCUUCUCGAUCUAACAAAAAAGACAAAUCUGCCACACAGCUUGAGAGCGUCUUCGGAUGCAGAGGCGGCAGCCUUCUGUGGCGCGAUAGCGCCAACGUUCUCAACUAUGAGACGCAAAACGCGUUCUCCUUUGAAUGGAGUUUAUCAUG [A40C A52G G80U C114G G128U G133U]	≤ -4.2
GGAUCUUCUCGAUCUAACAAAAAAGACAAAUCUGCCACUAAGCUUGAGAGCAUCUUCGGAUGCAGAGGCGGCAGCCAUCGCUGGCGUGAUAGCGUCACCGUUCUCAACUAUGACACGCAAAACGCUUGCUCCGUUCAAUGGAGUUUAUCAUG [A39U U77A G81C C87U C95U A98C G126U G136C]	≤ -4.2
GGAUCUUCUCGAUCUAACAAAAAAGACAAAUCUGCCACACAGCUUGAGAGCAUCUUCGGAUGCAGAGGCGGCAGCCUUCGGUGGGGCGAUAGCGCCAACGUUCUCAAGUAUGACACGCAAAACGCGUGCUCCGUUGAAUGGAGUUUAUCAUG [A40C C85G C108G]	≤ -4.2
GGAUCUUCUCGAUCUAACAAAAAAGACAAAUCUGCCACUAAGCUUGAGAGCAUCUUCGGAAGCCGAGGCGGCAGCCUUCGGUGGCCCGAUAGCGCCAACGUUCUCAACUAUGACACGCAAAACGCGUGCUCCGUUGAAUGGAGUUUAUCAUG [A39U U61A A64C G86C]	≤ -4.2
GGAUCUUCUCGAUCUAACAAAAAAGACAAAUCUGCCACACAGCUUGAGAGCCUCUUCGGAUGCAGAGGCGGCAGCCUUCGAUAGCGCGAUAGGGCCAACGUUCUCAACUAUGACACGCAAAACGCGUGCUCCGUUGAAUGGAGUUUAUCAUG [A40C A52C G81A G83A C93G]	≤ -4.2
GGAUCUUCUCGAUCUAACAAAAAAGACAAAUCUGCCACUAAGCUUGAGAGCAACUUCGGAUGCAGAGGCGGCAGCCUUCGGUGGAGCGAUAGCGCCAACGUUCUCAACUAUGACACGCAAAACGCGUGCUCCGUUGAAUGGAGUUUAUCAUG [A39U U53A C85A]	≤ -4.2
GGAUCUUCUCGAUCUAACAAAAAAGACAAAUCUGCCACACAGCUUGAGAGCAUCUUCGGAUGCAGAGGCGGCAGCCUUCGGUGGCGCGAUAGCGCCAGCGUUCUCAACUAUGACACGCAAAACGCGUGCUCCGUUGAAUGGAGUUGAUCAUC [A40C A98G U146G G152C]	≤ -4.2
GGAUCUUCUCGAUCUAACAAAAAAGACAAAUCUGCCACUAAGCUUGAGAGCAUCAUCGUAUGCAGAGGCGGCAGCCUUCGGUGGCGCGAUAGCGCCAACGUUCUCAACUAUGACACACAAUACGCGUGCUCCGUUGAAUGGAGUUUAUCAUG [A39U U55A G59U G117A A121U]	-1.11
GGAUCUUCUCGAUCUAACAAAAAAGACAAAUCUGCCACACAGCUUGCGAGCAUCUUCGGCUGCAGAGGCGUCAGCCUUCGGUGGCGCGAUCGUGCCAACGUUCUCAACUAUGACACGCAAAACGCGUGCUCCGUUGAAUGGAGUUUAUCAUG [A40C A47C A60C G71U A91C C93U]	≤ -4.2
GGAUCUUCUCGAUCUAACAAAAAAGACAAAUCUGCCACACAGCUUGAGAGCAUCUUCGGAUGCAGAGGGGGCAGUCUUCGGUGGCGCGAUAGCGCCAUCGUUCUCAACUAUGACACGCAAAACGCGUGCUCCGUGGAAUGGAGUUUAUCAGG [A40C C69G C75U A98U U135G U151G]	≤ -4.2
GGAUCUUCUCGAUCUAACAAAAAAGACAAAUCUGCCACACAGCUUGAGAGCAUCUUCGGAUGCAGAGGCGGCAGACUUCGGUGGCGCGAUAGCGCCAACGUUCUCAACUAUGAGACGCAAAACGCGUGCUCCGUUGAAUGGAGUUUAUCAUG [A40C C75A C114G]	≤ -4.2
GGAUCUUCUCGAUCUAACAAAAAAGACAAAUCUGCCACACCGCUUGAGAGCAUCUUCGGAUGCAGAGGCGGCAGCCUUCGGUGGCGCGAUAGCGCCAACGUUCUCAUGUAUGACACCCAAAACGCGUGCUCCGUUGAAUGGAGUUUAUCAUG [A40C A41C A107U C108G G117C]	≤ -4.2
GGAUCUUCUCGAUCUAACAAAAAAGACAAAUCUGCCACACAGCUUGAGAGCAUCUUCGGAUGCAGAGGCGGCAGCCUUCGGUGGGGCGAUAGCGCCAACGUUCUCAACUAUGACACGCAAAACGCGUGCUCCGUUGAAUGGAGUUUAUCAUG [A40C C85G]	-1.95
GGAUCUUCUCGAUCUAACAAAAAAGACAAAUCUGCCACACAGCUUGAGAGCCUCUUCGGAUGCAGAGGCGGCAGCCUUCGGUGGCGCGAUAGCGCCAACGUUCUCAACUAUGACACGCAAAACGCGUGCUCCGUUGAAUGGAGUUUAUCAUG [A40C A52C]	-1.04
GGAUCUUCUCGAUCUAACAAAAAAGACAAAUCUGCCACUAAGCUUGAGAGCAUCUUCGGAUGCAGAGGCGGCAGCCUUCGGUGGCGCGAUAGCGCCAACGGUCUCAACUAUGACACGCAAAACGCGUGCUCCGUUGAAUGGAGUUUAUCAUG [A39U U101G]	-2.05
GGAUCUUCUCGAUCUAACAAAAAAGACAAAUCUGCCACUAAGCGUGAGAGCAUCUUCGGAUGCAGAGGCGGCAGCCUUCGGUGGCGCGAUAGCGCCAACGUUCUCAACCAUGACACGCAAAACGCGUGCUCCGUUGAAUGGAGUUUAUCAUG [A39U U44G U109C]	≤ -4.2
GGAUCUUCUCGAUCUAACAAAAAAGACAAAUCUGCCACACAGCUUGAGAGUAUCUUCGGAUGCAGAGGCGGCAGCCUUCGGUGACGCGAUAGCGCCAACGUUCUCAACUAUGACACGCAAAACGCGUGCUCCGUUGAAUGGAGUUUAUCAUG [A40C C51U G84A]	-0.15
